The values that follow come from patent US20230312722A1 (NONA BIOSCIENCES SUZHOU, published 2023).

Like-named read-outs stand apart in the source and are kept apart here.

Test [1] addresses T1, Human B7H4 (his tag), Sino Biological #10738-H08H (human, UniProt Q7Z7D3 25-259).
T1 construct: extracellular domain; Bought protein; also called hB7H4-ECD-his
T1 sequence (looked up): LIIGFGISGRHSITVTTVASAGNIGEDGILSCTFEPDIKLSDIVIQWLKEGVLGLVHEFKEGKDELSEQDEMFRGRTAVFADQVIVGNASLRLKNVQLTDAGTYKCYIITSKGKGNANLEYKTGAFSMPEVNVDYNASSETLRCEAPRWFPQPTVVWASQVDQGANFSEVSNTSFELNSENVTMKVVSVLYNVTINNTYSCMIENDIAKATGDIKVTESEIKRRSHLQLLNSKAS
In words: SPR (Biacore T200), antibody captured on Protein A, B7H4-his as analyte, 1:1 fit. The procedure: 10×HBS-EP+ (GE Healthcare, #BR-1006-69) was diluted 10-fold and then taken as an experimental buffer. The flow rate was set at 10 μL/min, and Protein A was coupled to 4 channels of a chip CM5 (GE Healthcare, #BR-1005-30) through the following procedures: 1) the injection time was set to 800 s, and a fresh mixture of 50 mM NHS and 200 mM EDC was injected into the 4 channels in a volume ratio of 1:1; 2) Protein A was diluted to 20 μg/mL with sodium acetate (GE Healthcare, #BR-1003-50) at pH 4.5 and injected into each channel for 800 s; and 3) 1 M ethanolamine at pH 8.5 was injected for 800 s to block the remaining active carboxyl groups on the chip surface. After blocking, the instrument was equilibrated with 1×HBS-EP+buffer for 2 hours, and the final coupling level of Protein A was about 2000 RU.
A multi-cycle kinetics mode was set at Biacore T200, and each cycle included antibody capture, analyte binding and chip regeneration. […] Finally, 10 mM glycine-hydrochloric acid at pH 1.5 (GE Healthcare, #BR-1003-54) was injected at the same flow rate for 30 s to regenerate the chip.
The experimental results were analyzed using the Biacore T200 analysis software 2.0, with channel 1 subtracted as a reference channel and a 1:1 kinetic fitting model selected as an analysis model.
On the technique in general: SPR reads the build-up and loss of mass on a sensor chip optically.

Test [2] addresses T2, B7-H4 (Acro Biosystems, #B74-H82E2) (UniProt Q7Z7D3 29-258).
T2 construct: Bought protein; also called B7-H4 captured on SA sensor
T2 sequence (looked up): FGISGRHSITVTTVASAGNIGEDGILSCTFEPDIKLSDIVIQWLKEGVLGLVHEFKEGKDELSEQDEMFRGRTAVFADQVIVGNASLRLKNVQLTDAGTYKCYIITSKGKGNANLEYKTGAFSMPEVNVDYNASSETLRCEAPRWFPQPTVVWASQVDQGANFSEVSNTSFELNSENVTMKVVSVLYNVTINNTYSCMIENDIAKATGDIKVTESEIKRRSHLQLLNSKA
Kind of test: BLI epitope competition; 1st Ab = row; competitor (2nd Ab) PR002418; inhibition of the 2nd Ab signal. The procedure:
(§1) Step one, acquisition of 100% signal of antibodies: B7-H4 (Acro Biosystems, #B74-H82E2-200 μg) was captured at a capture height of 0.25 nm using an SA sensor (Fortebio, #18-5019). The sensor was equilibrated in a buffer for 120 s and then immersed in each antibody diluted to 100 nM for 240 s, and the final signal of the antibody binding to B7-H4 was recorded as the 100% signal of the antibody. Step two, epitope competition experiment: B7-H4 was captured using an SA sensor at a capture height of 0.25 nm. The sensor was immersed in a primary antibody (at a concentration of 100 nM) for 240 s, and then the SA sensor was immersed in a mixture of the primary and secondary antibodies (both at a final concentration of 100 nM) for 240 s, and the difference in signals after immersion of the sensor in the antibody mixture was recorded as the signal of the antibody as the secondary antibody. The inhibition rate was calculated according to the following formula: […]

Test [3] addresses T2, B7-H4 (Acro Biosystems, #B74-H82E2). In words: BLI epitope competition; 1st Ab = row; competitor (2nd Ab) PR002421; inhibition of the 2nd Ab signal. The procedure: as §1
The target is the same in test [4]. In words: BLI epitope competition; 1st Ab = row; competitor (2nd Ab) Control antibody 1; inhibition of the 2nd Ab signal. The procedure:
as §1

The target is the same in test [5]. Kind of test: BLI epitope competition; 1st Ab = row; competitor (2nd Ab) Control antibody 2; inhibition of the 2nd Ab signal. The procedure: as §1
Test [6] has as its target T3, human B7H4 on the cell surface (human, UniProt Q7Z7D3 25-282).
T3 construct: whole, on cells; also called CHOK1/hu B7H4; B7H4 on SK-BR-3
T3 sequence (looked up): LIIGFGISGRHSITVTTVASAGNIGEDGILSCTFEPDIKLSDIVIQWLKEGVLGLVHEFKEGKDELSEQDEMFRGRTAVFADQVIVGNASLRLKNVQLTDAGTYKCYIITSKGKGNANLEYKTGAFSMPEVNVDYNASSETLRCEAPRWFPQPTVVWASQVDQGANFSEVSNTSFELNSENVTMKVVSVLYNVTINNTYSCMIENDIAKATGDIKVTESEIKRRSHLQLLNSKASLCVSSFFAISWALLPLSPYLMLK
In words: FACS on SK-BR-3 cells, expression supernatant at 1 X and 10X.

For test [7], the target named is T4, CD3 on human T cells (human, UniProt P07766 23-207; P04234 22-171; P09693 23-182). In words: FACS on human T cells. The procedure:
(§2) SK-BR-3 cells were digested. T cells were isolated using the human T cell isolation kit (Miltenyi, #130-096-535) as described in the method of the instruction, and resuspended with PBS containing 2% BSA. The cell density was adjusted to 1×10⁶ cells/mL. The cells were seeded in a 96-well V-bottom plate (Corning, #3894) at 100 μL/well, followed by the addition of test antibodies diluted in a 3-fold gradient at a concentration that was 2 times the final concentration, each at 100 μL/well. The cells were incubated at 4° C. for 2 h away from light. Thereafter, the cells in each well were rinsed twice with 100 μL of pre-cooled PBS containing 2% BSA, and centrifuged at 500 g at 4° C. for 5 min, and then the supernatant was discarded. Then each well was added with 100 μL of fluorescent secondary antibody (Alexa Fluor 488-conjugated AffiniPure Goat Anti-Human IgG, Fcγ Fragment Specific, Jackson, #109-545-098, diluted in a 1:500 ratio), and the plate was incubated away from light at 4° C. for 1 h. The cells in each well were washed twice with 100 μL of pre-cooled PBS containing 2% BSA, and centrifuged at 500 g at 4° C. for 5 minutes, and then the supernatant was discarded. Finally, the cells in each well were resuspended with 200 μL of pre-cooled PBS containing 2% BSA, and the fluorescence signal values were read using an ACEA Novocyte3000 flow cytometer.

Test [8] deals with T4, CD3 on human T cells. Kind of test: FACS on human T cells. The procedure:
as §2
The source holds these as a separate data set.

Test [9] addresses T4, CD3 on human T cells. In words: FACS on human T cells. The procedure: as §2
This is another data set of the same source.

The target of test [10] is T4, CD3 on human T cells. Kind of test: FACS on human T cells. The procedure:
as §2
The source holds these as a separate data set.

The target of test [11] is T3, human B7H4 on the cell surface. In words: FACS on SK-BR-3 cells. The procedure:
as §2

In test [12] the target is T4, CD3 on human T cells. In words: FACS on human T cells; EC50 printed as n.d., curve still rising at 100 nM. The procedure: as §2
The target of test [13] is T3, human B7H4 on the cell surface. In words: FACS on SK-BR-3 cells; the printed number lies below the lowest concentration shown (0.03 nM). The procedure:
as §2

T4 sequence (P07766 23-207 limits assumed, chain 1 of 3): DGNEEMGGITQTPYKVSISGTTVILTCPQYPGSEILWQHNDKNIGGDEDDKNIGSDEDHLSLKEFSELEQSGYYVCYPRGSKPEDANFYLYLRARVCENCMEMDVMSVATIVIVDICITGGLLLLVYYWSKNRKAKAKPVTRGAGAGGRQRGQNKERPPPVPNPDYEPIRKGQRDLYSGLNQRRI
T4 sequence (P04234 22-171 limits assumed, chain 2 of 3): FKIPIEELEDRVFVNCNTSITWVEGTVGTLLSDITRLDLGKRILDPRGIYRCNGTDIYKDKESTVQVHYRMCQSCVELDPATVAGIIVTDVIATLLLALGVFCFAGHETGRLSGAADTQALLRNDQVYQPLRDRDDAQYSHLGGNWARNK
T4 sequence (P09693 23-182 limits assumed, chain 3 of 3): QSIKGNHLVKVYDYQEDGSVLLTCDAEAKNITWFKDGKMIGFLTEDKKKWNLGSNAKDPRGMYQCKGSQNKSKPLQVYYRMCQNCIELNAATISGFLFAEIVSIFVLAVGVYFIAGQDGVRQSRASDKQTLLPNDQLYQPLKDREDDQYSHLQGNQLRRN

B1: Control antibody 2 (PR002962) (antibody, human IgG1, kappa, V domains shown)
VH: QLQLQESGPGLVKPSETLSLTCTVSGGSIKSGSYYWGWIRQPPGKGLEWIGNIYYSGSTYYNPSLRSRVTISVDTSKNQFSLKLSSVTAADTAVYYCAREGSYPNQFDPWGQGTLVTVSS
VL: EIVMTQSPATLSVSPGERATLSCRASQSVSSNLAWYQQKPGQAPRLLIYGASTRATGIPARFSGSGSGTEFTLTISSLQSEDFAVYYCQQYHSFPFTFGGGTKVEIKR
notes: Anti-B7H4 IgG1 control antibody from WO2019040780A1 (FivePrime), Fc mutated on the basis of PR002961 to enhance ADCC
Take B1: the dissociation constant (Kd) (usually the equilibrium constant for the complex coming apart) in test [1] worked out at 4.45 nM. In addition, the off-rate (koff) – broadly, the rate constant with which the complex falls apart – in test [1] was 0.00116 s⁻¹. The on-rate (kon) (in general, a measure of how fast the partners come together) in [1] worked out at 261000 M⁻¹ s⁻¹. The “Competitive inhibition rate (%)” value was 4.49% in test [2], 6.32% in test [3], 96.6% in [4] and 95.8% in [5].

B2: PR002405 (antibody, human IgG1, kappa, V domains shown)
VH: QVQLVESGGGVVQPGRSLRLSCAASGFTFRSFGMHWVRQAPGKGLEWVAVISYEGSNEYYADSVKGRFIISRDNSKDTLYLQMNSLRAGDTAVYYCAKGGGLRWYFAYWGQGTLVTVSS
VL: EIVMTQSPATLSVSPGERATLSCRASQSISSNLGWYQQKPGQAPRLLIYGASTRATGIPARFSGSGSGTEFTLTISSLQSEDFAVYYCQQYQSWPPLTFGGGTKVEIKR
notes: variant of PR001476 (H: D54E); also called PR002405 supernatant
In the case of B2, in [6], the binding result was “binds”.

B3: PR001924 (antibody, V domains shown)
VH: EVQLLESGGGLVQPGGSLRLSCAASGFTFSTYAMNWVRQAPGKGLEWVSRIRSKYNNYATYYADSVKDRFTISRDDSKSTLYLQMNSLRAEDTAVYYCVRHGNFGNSYVSWFAYWGQGTLVTVSS
VL: QAVVTQEPSLTVSPGGTVTLTCRSSTGAVTTSNYANWVQQKPGQAPRGLIGGTNKRAPWTPARFSGSLLGDKAALTLLGAQPEDEAEYFCALWYSNLWVFGGGTKLTVLG
notes: also called PR001924 (αCD3 IgG)
As for B3, the EC50 (in general, the concentration giving half of the maximal effect) with CD3 on human T cells [7] was 7.5 nM; with CD3 on human T cells [8] it was 7.5 nM; with CD3 on human T cells [9], 6.1 nM; in the test with CD3 on human T cells [10], 7.5 nM.

B4: PR002994 (bispecific antibody, human IgG1, kappa, lambda, L234A L235A)
chain 1: EVQLLESGGGLVQPGGSLRLSCAASGFTFSTYAMNWVRQAPGKGLEWVSRIRSKYNNYATYYADSVKDRFTISRDDSKSTLYLQMNSLRAEDTAVYYCVRHGNFGNSYVSWFAYWGQGTLVTVSSASTKGPSVFPLAPSSKSTSGGTAALGCLVKDYFPEPVTVSWNSGALTSGVHTFPAVLQSSGLYSLSSVVTVPSSSLGTQTYICNVNHKPSNTKVDKKVEPKSC
chain 2: not shown
heavy: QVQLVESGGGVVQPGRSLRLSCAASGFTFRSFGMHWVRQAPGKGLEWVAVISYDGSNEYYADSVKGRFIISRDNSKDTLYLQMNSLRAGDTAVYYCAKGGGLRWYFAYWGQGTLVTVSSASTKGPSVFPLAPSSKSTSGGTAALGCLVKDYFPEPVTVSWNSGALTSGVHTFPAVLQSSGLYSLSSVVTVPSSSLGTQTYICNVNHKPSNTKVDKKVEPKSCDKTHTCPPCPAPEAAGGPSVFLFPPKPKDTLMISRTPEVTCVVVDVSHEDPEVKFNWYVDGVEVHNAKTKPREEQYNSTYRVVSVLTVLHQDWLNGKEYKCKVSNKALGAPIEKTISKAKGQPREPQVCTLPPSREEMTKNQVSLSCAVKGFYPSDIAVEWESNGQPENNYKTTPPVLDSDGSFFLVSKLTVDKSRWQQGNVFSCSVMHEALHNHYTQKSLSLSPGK
light: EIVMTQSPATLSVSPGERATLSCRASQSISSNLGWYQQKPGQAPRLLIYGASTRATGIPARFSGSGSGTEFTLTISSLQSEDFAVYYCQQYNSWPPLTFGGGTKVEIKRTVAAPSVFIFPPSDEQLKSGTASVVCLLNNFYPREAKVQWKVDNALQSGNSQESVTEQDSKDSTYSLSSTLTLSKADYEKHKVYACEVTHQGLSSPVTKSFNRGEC
notes: B7H4 x CD3, 2+1 asymmetric structure (structure 6): CD3 end from PR001924, two B7H4 Fabs from PR001476
As to B4, the “Maximum MFI” value in test [11] came to 183000; with CD3 on human T cells [12], 73000. This molecule yielded a 50% effective concentration (EC50) in [13] of 0.006 nM.
